{"source": "patent US20230160883A1", "key": {"[1]": {"target": "TZSV N protein (recombinant, expressed from pET30a-TZSV in E. coli BL21 (DE3)) (tomato zonate spot virus)", "assay": "indirect ELISA, negative of the row of FL484-23"}, "[2]": {"target": "TZSV N protein (recombinant, expressed from pET30a-TZSV in E. coli BL21 (DE3)) (tomato zonate spot virus)", "assay": "indirect ELISA, negative of the row of FL484-29"}, "[3]": {"target": "TZSV N protein (recombinant, expressed from pET30a-TZSV in E. coli BL21 (DE3)) (tomato zonate spot virus)", "assay": "indirect ELISA, negative of the row of FL484-4"}, "[4]": {"target": "TZSV N protein (recombinant, expressed from pET30a-TZSV in E. coli BL21 (DE3)) (tomato zonate spot virus)", "assay": "indirect ELISA, negative of the row of FL484-2"}, "[5]": {"target": "TZSV N protein (recombinant, expressed from pET30a-TZSV in E. coli BL21 (DE3)) (tomato zonate spot virus)", "assay": "indirect ELISA, negative of the row of FL484-7"}, "[6]": {"target": "TZSV N protein (recombinant, expressed from pET30a-TZSV in E. coli BL21 (DE3)) (tomato zonate spot virus)", "assay": "indirect ELISA, negative control of the row of M210045"}, "[7]": {"target": "TZSV N protein (recombinant, expressed from pET30a-TZSV in E. coli BL21 (DE3)) (tomato zonate spot virus)", "assay": "indirect ELISA, negative of the row of FL484-27"}, "[8]": {"target": "TZSV N protein (recombinant, expressed from pET30a-TZSV in E. coli BL21 (DE3)) (tomato zonate spot virus)", "assay": "indirect ELISA, negative of the row of FL484-31"}, "[9]": {"target": "TZSV N protein (recombinant, expressed from pET30a-TZSV in E. coli BL21 (DE3)) (tomato zonate spot virus)", "assay": "indirect ELISA, negative of the row of FL484-1"}, "[10]": {"target": "TZSV N protein (recombinant, expressed from pET30a-TZSV in E. coli BL21 (DE3)) (tomato zonate spot virus)", "assay": "indirect ELISA, negative of the row of FL484-19"}, "[11]": {"target": "TZSV N protein (recombinant, expressed from pET30a-TZSV in E. coli BL21 (DE3)) (tomato zonate spot virus)", "assay": "indirect ELISA, negative of the row of FL484-34"}, "[12]": {"target": "TZSV N protein (recombinant, expressed from pET30a-TZSV in E. coli BL21 (DE3)) (tomato zonate spot virus)", "assay": "indirect ELISA, negative of the row of FL484-22"}, "[13]": {"target": "TZSV N protein (recombinant, expressed from pET30a-TZSV in E. coli BL21 (DE3)) (tomato zonate spot virus)", "assay": "indirect ELISA, negative of the row of FL484-17"}, "[14]": {"target": "TZSV N protein (recombinant, expressed from pET30a-TZSV in E. coli BL21 (DE3)) (tomato zonate spot virus)", "assay": "indirect ELISA, negative of the row of FL484-8"}, "[15]": {"target": "TZSV N protein (recombinant, expressed from pET30a-TZSV in E. coli BL21 (DE3)) (tomato zonate spot virus)", "assay": "indirect ELISA, negative of the row of FL484-18"}, "[16]": {"target": "TZSV N protein (recombinant, expressed from pET30a-TZSV in E. coli BL21 (DE3)) (tomato zonate spot virus)", "assay": "indirect ELISA, negative of the row of FL484-16"}, "[17]": {"target": "TZSV N protein (recombinant, expressed from pET30a-TZSV in E. coli BL21 (DE3)) (tomato zonate spot virus)", "assay": "indirect ELISA, negative control of the row of M210048"}, "[18]": {"target": "TZSV N protein (recombinant, expressed from pET30a-TZSV in E. coli BL21 (DE3)) (tomato zonate spot virus)", "assay": "indirect ELISA, negative of the row of FL484-10"}, "[19]": {"target": "TZSV N protein (recombinant, expressed from pET30a-TZSV in E. coli BL21 (DE3)) (tomato zonate spot virus)", "assay": "indirect ELISA, negative control of the row of M210047"}, "[20]": {"target": "TZSV N protein (recombinant, expressed from pET30a-TZSV in E. coli BL21 (DE3)) (tomato zonate spot virus)", "assay": "indirect ELISA, negative of the row of FL484-12"}, "[21]": {"target": "TZSV N protein (recombinant, expressed from pET30a-TZSV in E. coli BL21 (DE3)) (tomato zonate spot virus)", "assay": "indirect ELISA, negative control of the row of M210046"}, "[22]": {"target": "TZSV N protein (recombinant, expressed from pET30a-TZSV in E. coli BL21 (DE3)) (tomato zonate spot virus)", "assay": "indirect ELISA, negative of the row of FL484-9"}, "[23]": {"target": "TZSV N protein (recombinant, expressed from pET30a-TZSV in E. coli BL21 (DE3)) (tomato zonate spot virus)", "assay": "indirect ELISA, negative of the row of FL484-25"}, "[24]": {"target": "TZSV N protein (recombinant, expressed from pET30a-TZSV in E. coli BL21 (DE3)) (tomato zonate spot virus)", "assay": "indirect ELISA, negative of the row of FL484-24"}, "[25]": {"target": "TZSV N protein (recombinant, expressed from pET30a-TZSV in E. coli BL21 (DE3)) (tomato zonate spot virus)", "assay": "indirect ELISA, negative of the row of FL484-33"}, "[26]": {"target": "TZSV N protein (recombinant, expressed from pET30a-TZSV in E. coli BL21 (DE3)) (tomato zonate spot virus)", "assay": "indirect ELISA, negative of the row of FL484-14"}, "[27]": {"target": "TZSV N protein (recombinant, expressed from pET30a-TZSV in E. coli BL21 (DE3)) (tomato zonate spot virus)", "assay": "indirect ELISA, negative of the row of FL484-21"}, "[28]": {"target": "TZSV N protein (recombinant, expressed from pET30a-TZSV in E. coli BL21 (DE3)) (tomato zonate spot virus)", "assay": "indirect ELISA, negative of the row of FL484-11"}, "[29]": {"target": "TZSV N protein (recombinant, expressed from pET30a-TZSV in E. coli BL21 (DE3)) (tomato zonate spot virus)", "assay": "indirect ELISA, negative of the row of FL484-28"}, "[30]": {"target": "TZSV N protein (recombinant, expressed from pET30a-TZSV in E. coli BL21 (DE3)) (tomato zonate spot virus)", "assay": "indirect ELISA, negative of the row of FL484-13"}, "[31]": {"target": "TZSV N protein (recombinant, expressed from pET30a-TZSV in E. coli BL21 (DE3)) (tomato zonate spot virus)", "assay": "indirect ELISA, negative of the row of FL484-30"}, "[32]": {"target": "TZSV N protein (recombinant, expressed from pET30a-TZSV in E. coli BL21 (DE3)) (tomato zonate spot virus)", "assay": "indirect ELISA, negative of the row of FL484-5"}, "[33]": {"target": "TZSV N protein (recombinant, expressed from pET30a-TZSV in E. coli BL21 (DE3)) (tomato zonate spot virus)", "assay": "indirect ELISA, negative of the row of FL484-15"}, "[34]": {"target": "TZSV N protein (recombinant, expressed from pET30a-TZSV in E. coli BL21 (DE3)) (tomato zonate spot virus)", "assay": "indirect ELISA, negative of the row of FL484-20"}, "[35]": {"target": "TZSV N protein (recombinant, expressed from pET30a-TZSV in E. coli BL21 (DE3)) (tomato zonate spot virus)", "assay": "indirect ELISA, negative of the row of FL484-3"}, "[36]": {"target": "TZSV N protein (recombinant, expressed from pET30a-TZSV in E. coli BL21 (DE3)) (tomato zonate spot virus)", "assay": "indirect ELISA, negative of the row of FL484-26"}, "[37]": {"target": "TZSV N protein (recombinant, expressed from pET30a-TZSV in E. coli BL21 (DE3)) (tomato zonate spot virus)", "assay": "indirect ELISA, negative of the row of FL484-35"}, "[38]": {"target": "TZSV N protein (recombinant, expressed from pET30a-TZSV in E. coli BL21 (DE3)) (tomato zonate spot virus)", "assay": "indirect ELISA, negative of the row of FL484-6"}, "[39]": {"target": "TZSV N protein (recombinant, expressed from pET30a-TZSV in E. coli BL21 (DE3)) (tomato zonate spot virus)", "assay": "indirect ELISA, negative of the row of FL484-32"}}, "data": [{"substance": "negative control (mouse serum before immunization)", "values": [{"measurement": "OD450", "setting": "[1]", "result": 0.232, "unit": "OD"}, {"measurement": "OD450", "setting": "[2]", "result": 0.215, "unit": "OD"}, {"measurement": "OD450", "setting": "[3]", "result": 0.23, "unit": "OD"}, {"measurement": "OD450", "setting": "[4]", "result": 0.208, "unit": "OD"}, {"measurement": "OD450", "setting": "[5]", "result": 0.24, "unit": "OD"}, {"measurement": "OD450", "setting": "[6]", "result": 0.137, "unit": "OD"}, {"measurement": "OD450", "setting": "[7]", "result": 0.197, "unit": "OD"}, {"measurement": "OD450", "setting": "[8]", "result": 0.172, "unit": "OD"}, {"measurement": "OD450", "setting": "[9]", "result": 0.169, "unit": "OD"}, {"measurement": "OD450", "setting": "[10]", "result": 0.164, "unit": "OD"}, {"measurement": "OD450", "setting": "[11]", "result": 0.193, "unit": "OD"}, {"measurement": "OD450", "setting": "[12]", "result": 0.163, "unit": "OD"}, {"measurement": "OD450", "setting": "[13]", "result": 0.186, "unit": "OD"}, {"measurement": "OD450", "setting": "[14]", "result": 0.196, "unit": "OD"}, {"measurement": "OD450", "setting": "[15]", "result": 0.179, "unit": "OD"}, {"measurement": "OD450", "setting": "[16]", "result": 0.209, "unit": "OD"}, {"measurement": "OD450", "setting": "[17]", "result": 0.125, "unit": "OD"}, {"measurement": "OD450", "setting": "[18]", "result": 0.158, "unit": "OD"}, {"measurement": "OD450", "setting": "[19]", "result": 0.137, "unit": "OD"}, {"measurement": "OD450", "setting": "[20]", "result": 0.157, "unit": "OD"}, {"measurement": "OD450", "setting": "[21]", "result": 0.146, "unit": "OD"}, {"measurement": "OD450", "setting": "[22]", "result": 0.171, "unit": "OD"}, {"measurement": "OD450", "setting": "[23]", "result": 0.234, "unit": "OD"}, {"measurement": "OD450", "setting": "[24]", "result": 0.203, "unit": "OD"}, {"measurement": "OD450", "setting": "[25]", "result": 0.221, "unit": "OD"}, {"measurement": "OD450", "setting": "[26]", "result": 0.19, "unit": "OD"}, {"measurement": "OD450", "setting": "[27]", "result": 0.18, "unit": "OD"}, {"measurement": "OD450", "setting": "[28]", "result": 0.052, "unit": "OD"}, {"measurement": "OD450", "setting": "[29]", "result": 0.229, "unit": "OD"}, {"measurement": "OD450", "setting": "[30]", "result": 0.155, "unit": "OD"}, {"measurement": "OD450", "setting": "[31]", "result": 0.265, "unit": "OD"}, {"measurement": "OD450", "setting": "[32]", "result": 0.237, "unit": "OD"}, {"measurement": "OD450", "setting": "[33]", "result": 0.187, "unit": "OD"}, {"measurement": "OD450", "setting": "[34]", "result": 0.236, "unit": "OD"}, {"measurement": "OD450", "setting": "[35]", "result": 0.14, "unit": "OD"}, {"measurement": "OD450", "setting": "[36]", "result": 0.161, "unit": "OD"}, {"measurement": "OD450", "setting": "[37]", "result": 0.19, "unit": "OD"}, {"measurement": "OD450", "setting": "[38]", "result": 0.24, "unit": "OD"}, {"measurement": "OD450", "setting": "[39]", "result": 0.194, "unit": "OD"}]}]}
